Measurements as given in patent US20240026017A1 (Kyowa Kirin, published 2024).
Changes are numbered by the printed parent chain.

T1: human CC chemokine receptor 1 (human CCR1) (human, UniProt P32246 1-355)
T1 construct: endogenous on THP-1 cells in the migration assays; also called hCCR1; CHO-S-hCCR1 (expressing cells)
T1 sequence: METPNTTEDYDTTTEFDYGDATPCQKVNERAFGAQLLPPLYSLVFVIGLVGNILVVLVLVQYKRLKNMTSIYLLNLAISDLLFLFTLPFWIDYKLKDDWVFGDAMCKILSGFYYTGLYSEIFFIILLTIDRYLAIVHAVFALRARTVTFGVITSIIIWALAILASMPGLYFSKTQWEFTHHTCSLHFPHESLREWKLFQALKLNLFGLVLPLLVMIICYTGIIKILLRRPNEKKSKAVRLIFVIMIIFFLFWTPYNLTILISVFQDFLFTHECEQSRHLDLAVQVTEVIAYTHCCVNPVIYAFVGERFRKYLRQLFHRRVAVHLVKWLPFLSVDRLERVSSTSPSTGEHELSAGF

B1: chKM5908′ mut05 (antibody, V domains shown)
VH: QVQLKQSGPGLVQPSQSLSITCTVSGFSLNNYGVHWVRQPPGKGLEWLGVTWSAGTTVYNAAFISRLSISKDDSKSQVFFKMNSLQAGDTAIYYCAKDGSRYYTAMDYWGQGTSVTVSS
VL: DVVMTQTPLSLPVSLGDQASIFCRSSQSLVHRNGITFFHWYLQKPGQSPKLLIYKVSNRFSGVPDRFSGSGSGTDFTLKISRVAPDDLGVYFCSQGTHVPPTFGGGTKLEIK
B2: chKM5908′ mut04 (antibody, V domains shown)
VH: B1 VH with T51I
VL: B1 VL with F38A, V56I
B3: chKM5908′ mut06 (antibody, V domains shown)
VH: B1 VH with T51I, V58A
VL: B1 VL
B4: hzmAb5-06 LV2aHV17 antibody (antibody, V domains shown)
VH: QVQLQQSGPGLVKPSQTLSITCTVSGFSLNNYGVHWVRQPPGKGLEWLGVIWSAGTTVYNAAAISRLTISKDDSKSQVSFKMSSLTAADTAIYYCAKDGSRYYTAMDYWGQGTLVTVSS
VL: DIVMTQSPLSLPVTLGEPASISCRSSQSLVHRNGITFFHWYLQKPGQSPKLLIYKISNRFSGVPDRFSGSGSGTDFTLKISRVEAEDVGVYYCSQGTHVPPTFGQGTKVEIK
notes: humanized
B5: hzmAb5-06 LV0HV17 antibody (antibody, V domains shown)
VH: B4 VH
VL: B4 VL with L15P, K50Q
notes: humanized
B6: hzmAb5-06 LV1aHV17 antibody (antibody, V domains shown)
VH: B4 VH
VL: B4 VL with L15P
notes: humanized
B7: hzmAb5-06 LV1bHV17 antibody (antibody, V domains shown)
VH: B4 VH
VL: B4 VL with K50Q
notes: humanized
B8: hzmAb5-06 LV2bHV17 antibody (antibody, V domains shown)
VH: B4 VH
VL: B4 VL with L15P, Y92F
notes: humanized
B9: hzmAb5-06 LV4HV17 antibody (antibody, V domains shown)
VH: B4 VH
VL: B4 VL with Y92F, V109L
notes: humanized
B10: hzmAb5-06 LV5HV17 antibody (antibody, V domains shown)
VH: B4 VH
VL: B4 VL with I2V, Y92F, V109L
notes: humanized
B11: hzKM5907 LV2bHV2a antibody (antibody, V domains shown)
VH: EVQLLESGGGLVQPGGSLRLSCAASGFTFSRYGMSWVRQAPGKRLEWVSSISATFTYTYYTDNVKGRFTISRDNSKNTLYLQMNSLRAEDTAVYYCARQDNYAWFDSWGQGTLVTVSS
VL: DIVMTQTPLSLPVTSGEPVSISCRSSQSIVHSNGNTFLEWYLKKPGQSPQLLIYKVSSRFSGVPDRFSGSGSGTDFTLKISRVEAEDVGVYYCFQGSHIPWTFGGGTKVEIK
notes: humanized; also called hzmAb5907 LV2bHV2a
B12: hzKM5907 LV0HV0 antibody (antibody, V domains shown)
VH: B11 VH with R44G, R98K
VL: B11 VL with V19A, K43Q
notes: humanized; also called hzmAb5907 LV0HV0
B13: hzKM5907 LV0HV7 antibody (antibody, V domains shown)
VH: B11 VH with L4V, S49A, A92G, V93M, A97T
VL: B11 VL with V19A, K43Q
notes: humanized; also called hzmAb5907 LV0HV7
B14: hzKM5907 LV1aHV0 antibody (antibody, V domains shown)
VH: B11 VH with R44G, R98K
VL: B11 VL with V19A
notes: humanized; also called hzmAb5907 LV1aHV0
B15: hzKM5907 LV1aHV7 antibody (antibody, V domains shown)
VH: B11 VH with L4V, S49A, A92G, V93M, A97T
VL: B11 VL with V19A
notes: humanized; also called hzmAb5907 LV1aHV7
B16: hzKM5907 LV1bHV0 antibody (antibody, V domains shown)
VH: B11 VH with R44G, R98K
VL: B11 VL with V19A, K43Q, Q50K
notes: humanized; also called hzmAb5907 LV1bHV0
B17: hzKM5907 LV1bHV7 antibody (antibody, V domains shown)
VH: B11 VH with L4V, S49A, A92G, V93M, A97T
VL: B11 VL with V19A, K43Q, Q50K
notes: humanized; also called hzmAb5907 LV1bHV7
B18: hzKM5907 LV1cHV0 antibody (antibody, V domains shown)
VH: B11 VH with R44G, R98K
VL: B11 VL with K43Q
notes: humanized; also called hzmAb5907 LV1cHV0
B19: hzKM5907 LV1cHV7 antibody (antibody, V domains shown)
VH: B11 VH with L4V, S49A, A92G, V93M, A97T
VL: B11 VL with K43Q
notes: humanized; also called hzmAb5907 LV1cHV7
B20: hzKM5907 LV2aHV0 antibody (antibody, V domains shown)
VH: B11 VH with R44G, R98K
VL: B11 VL with V19A, Q50K
notes: humanized; also called hzmAb5907 LV2aHV0
B21: hzKM5907 LV2aHV7 antibody (antibody, V domains shown)
VH: B11 VH with L4V, S49A, A92G, V93M, A97T
VL: B11 VL with V19A, Q50K
notes: humanized; also called hzmAb5907 LV2aHV7
B22: hzKM5907 LV2bHV0 antibody (antibody, V domains shown)
VH: B11 VH with R44G, R98K
VL: B11 VL
notes: humanized; also called hzmAb5907 LV2bHV0
B23: hzKM5907 LV2bHV1 antibody (antibody, V domains shown)
VH: B11 VH with R98K
VL: B11 VL
notes: humanized; also called hzmAb5907 LV2bHV1
B24: hzKM5907 LV2bHV2b antibody (antibody, V domains shown)
VH: B11 VH with R44G, S49A
VL: B11 VL
notes: humanized; also called hzmAb5907 LV2bHV2b
B25: hzKM5907 LV2bHV3b antibody (antibody, V domains shown)
VH: B11 VH with S49A, A97T, R98K
VL: B11 VL
notes: humanized; also called hzmAb5907 LV2bHV3b
B26: hzKM5907 LV2bHV3c antibody (antibody, V domains shown)
VH: B11 VH with A92G, A97T, R98K
VL: B11 VL
notes: humanized; also called hzmAb5907 LV2bHV3c
B27: hzKM5907 LV2bHV4 antibody (antibody, V domains shown)
VH: B11 VH with R44G, S49A, A92G, A97T
VL: B11 VL
notes: humanized; also called hzmAb5907 LV2bHV4
B28: hzKM5907 LV2bHV7 antibody (antibody, V domains shown)
VH: B11 VH with L4V, S49A, A92G, V93M, A97T
VL: B11 VL
notes: humanized; also called hzmAb5907 LV2bHV7
B29: hzKM5907 LV4HV0 antibody (antibody, V domains shown)
VH: B11 VH with R44G, R98K
VL: B11 VL with S15L, Q50K
notes: humanized; also called hzmAb5907 LV4HV0
B30: hzKM5907 LV4HV7 antibody (antibody, V domains shown)
VH: B11 VH with L4V, S49A, A92G, V93M, A97T
VL: B11 VL with S15L, Q50K
notes: humanized; also called hzmAb5907 LV4HV7
B31: hzKM5916 LV0HV1 antibody (antibody, V domains shown)
VH: QVQLQESGGGLVKPGGSLKLSCAASGFTFSRNAMSWVRQTPDKRLEWVAYISSGSDYIYYADTVKGRFTISRDNAKNTLYLQMSSLKSEDTAMYYCTRFSYGYGKNAPDYWGQGTMVTVSS
VL: DIQMTQSPSSLSASVGDRVTITCKASQDINKYIAWYQQKPGKAPKLLIHYTSSLQPGVPSRFSGSGSGTDFSFTISSLQPEDLATYYCLQYDYTMTFGGGTKVEIK
notes: humanized; also called hzmAb5916 LV0HV1
B32: hzKM5916 LV0HV0 antibody (antibody, V domains shown)
VH: B31 VH with T97A
VL: B31 VL
notes: humanized; also called hzmAb5916 LV0HV0
B33: hzKM5916 LV0HV3 antibody (antibody, V domains shown)
VH: B31 VH with D42E, K87R
VL: B31 VL
notes: humanized; also called hzmAb5916 LV0HV3
B34: hzKM5916 LV2HV1 antibody (antibody, V domains shown)
VH: B31 VH
VL: B31 VL with Q38H, A43G
notes: humanized; also called hzmAb5916 LV2HV1
B35: hzKM5916 LV2HV3 antibody (antibody, V domains shown)
VH: B31 VH with D42E, K87R
VL: B31 VL with Q38H, A43G
notes: humanized; also called hzmAb5916 LV2HV3

Target: T1, human CC chemokine receptor 1 (human …)
Assay: flow cytometry on CHO-S-hCCR1 cells; bound = fluorescence 10 times or more that of isotype control chDNP1
Experimental: (§1) The antigen affinity of the chKM5908′ antibody, which is a VL-substituted chimeric antibody, was measured by flow cytometry using the CHO-S-hCCR1 cells produced in Example 2. The cells were collected by centrifugation, the supernatant was removed, and the cells were suspended in PBS (Staining Medium, hereinafter, abbreviated as SM) containing 2% fetal bovine serum (FBS), 0.05% NaN₃, and 1 mM EDTA. Next, the cells were seeded in a 96-well plate so that the number of cells is 1×10⁵ per well, and the chKM5908′ antibody was added at each final concentration of 10,000, 2,000, 400, 80, 16, and 3.2 ng/mL, and the reaction was performed at 4° C. for 60 minutes. After washing the cells with SM, Goat F (ab′)₂ Anti-Human IgG PE (γ chain specific) (Southern Biotech) diluted 500-fold with SM was added and reacted at 4° C. for 60 minutes. After washing the cells with SM, the cells were resuspended in 50 μL of SM, and the fluorescence intensity was measured by the flow cytometry (FACS Canto II, BD Biosciences).
1996 June; 33 (9):759-68, hereinafter, referred to as chDNP1)] were determined to be bound to the human CCR1.

Binding result, binds:
B1
B2
B3

Target: T1, human CC chemokine receptor 1 (human …)
Assay: flow cytometry on CHO-S-hCCR1 cells; bound = fluorescence 10 times or more that of isotype control hzDNP1
Experimental: as §1
Next, a modified antibody was obtained using the method described in Example 12-(3). […] Hereinafter referred to as hzDNP1)] were determined to bind to the human CCR1.

Binding result, binds:
B4
B5
B6
B7
B8
B9
B10
B11
B12
B13
B14
B15
B16
B17
B18
B19
B20
B21
B22
B23
B24
B25
B26
B27
B28
B29
B30
B31
B32
B33
B34
B35
